# Experimental data as given in PMC7673715.
# Target: MyoVa^GTD (mouse) (UniProt Q99104)
# Experiment: ITC
substance,measurement,value
Spir2^GTBM (domain or fragment),fold higher affinity than MICAL1^GTBM,25 fold
